This note sets out measurements from patent US20250027068.

B1: PRT-148 (protein)
chain: MANQEIRYSEVTPYHVTSVWTKGVTPPANFTQGEDVFHAPYVANQGWYDITKTFNGKDDLLCGAATAGNMLHWWFDQNKDQIKRYLEEHPEKQKINFNGEQMFDVKEAIDTKNHQLDSKLFEYFKEKAFPYLSTKHLGVFPDHVIDMFINGYRLSLTNHGPTPVKRQSKDPRGGIFDAVFTRGDQSKLLTSRHDFKEKNLKEISDLIKKELTEGKALGLSHTYANVRINHVINLWGADFDSNGNLKAIYVTDSDSNASIGMKKYFVGVNSAGKVAISAKEIKEDNIGAQVLGLFTLSTGQDSWNKTN
B2: PRT-149 (protein)
chain: B1 chain with S168T, T181G, S186T, D301K
B3: PRT-13 (protein)
chain: MANQEIRYSEETPYHVTSVWTKGVTPPANFTQGEDVFHAPYKANQGWYDITKTFNGKDDLLCGAATAGNMLHWWFDQNKDQIEAYLKEHPEKQKINFNGEQMFDVKEAIDTKDDQTNSKLFEYFKEKAFPYLSTKHLGVFPDHVLDMFINGYRLSLTNHGPTPVKEGSKDPRGGIFDAVFTRGDQSKLLTSRHDFKEKTLKEISDLIKQELTEGKALALSHTYANVRINHVINLWGADFDSNGNLEAIYVTDSDSNASIGMKKYFVGVNSAGKVAISAKEIEDDNIGAQVLGLFTLSTGQDIWNQTN
B4: PRT-143 (protein)
chain: MANQEIRYSEVTPYHITSVWTKGVTPPANFTQGEDVFHAPYVANQGWYDITKTFNGKDDLLCGAATAGNMLHWWFDQNKDQIKRYLEEHPEKQKINFNGEQMFDVKEAIDTKNHQLDSKLFEYFKEKAFPYLSTKHLGVFPDHVIDMFINGYRLSLTNHGPTPVKEGSKDPRGGIFDAVFTRGDQSKLLTSRHDFKEKTLNEISQLIKQELTEGKALGLSHTYANVRINHVINLWGADFDAEGNLEAIYVTDSDSNASIGMKKYFVGVNSAGKVAISAKEIKEDNIGAQVLGLFTLSTGQDSWNQTN
B5: PRT-145 (protein)
chain: B4 chain with E202T, T212Q, E213S, V268K
B6: PRT-147 (protein)
chain: B4 chain with T17K, S18I, E202D, T212Q, E213S, V268K
B7: PRT-146 (protein)
chain: B4 chain with T17K, S18T, E202D, T212Q, E213S, V268K
B8: PRT-144 (protein)
chain: B4 chain with E202D, T212Q, E213S, V268K
B9: PRT-12 (protein)
chain: MANQEIRYSEVTPYHVTSVWTKGVTPPADFTQGEDVFHAPYKANQGWYDITKTFNGKDDLLCGAATAGNMLHWWFDQNKDQIERYLKEHPEKQKINFNGEQMFDVKEAIDTKDSQTDSKLFEYFKEKAFPYLSTKHLGVFPDHVIDMFINGYRLSLTNHGPTPVKRGSKDPRGGFFDAVFTRGDQSKLLTSRHDFKEKTLNEISDLIKKELTEGKALGLSHTYANVRINHVINLWGADFDSNGNLEAIYVTDSDSNASIGMKKYFVGVNSAGKVAISAKEIKEDNIGAQVLGLFTLSTGQDIWEQTN
B10: PRT-139 (protein)
chain: MRNATEAYAKEVPHQITSVWTKGVTPLTPEQFRYNNEDVIHAPYLANQGWYDITKAFDGKDNLLCGAATAGNMLHWWFDQNKTEIEAYLSKHPEKQKIIFNNQELFDLKAAIDTKDSQTNSQLFNYFRDKAFPNLSARQLGVMPDLVLDMFINGYYLNVFKTQSTDVNRPYQDKDKRGGIFDAVFTRGDQTTLLTARHDLKNKGLNDISTIIKQELTEGRALALSHTYANVSISHVINLWGADFNAEGNLEAIYVTDSDANASIGMKKYFVGINAHGHVAISAKKIEGENIGAQVLGLFTLSSGKDIWQKLS
B11: PRT-140 (protein)
chain: B10 chain with N47H, D58N
B12: PRT-141 (protein)
chain: B10 chain with N47H, H276A
B13: PRT-142 (protein)
chain: B10 chain with I40F, N47H

Substitutions are numbered along the chain they refer to.

In this data set the target is pooled human IgG.
B1 had an Enzyme Activity Endpoint Assay (purified): Fab'2 of 764 ng/µL, an Enzyme Activity Endpoint Assay (purified): Fc of 203 ng/µL, an Enzyme Activity Endpoint Assay (purified): IgG of 0 ng/µL and an Enzyme Activity Endpoint Assay (purified): scIgG of 0 ng/µL.

On to B2, for which the Enzyme Activity Endpoint Assay (purified): Fab'2 came out at 831 ng/µL, the Enzyme Activity Endpoint Assay (purified): Fc was determined as 0 ng/µL, the Enzyme Activity Endpoint Assay (purified): IgG is 0 ng/µL and the Enzyme Activity Endpoint Assay (purified): scIgG came to 0 ng/µL.

For B3, the Enzyme Activity Endpoint Assay: Fab′2 came to 2 ng/µL, the Enzyme Activity Endpoint Assay: Fc is 74 ng/µL, the Enzyme Activity Endpoint Assay: IgG stood at 12 ng/µL and the Enzyme Activity Endpoint Assay: scIgG was 66 ng/µL.

B4 gave an Enzyme Activity Endpoint Assay (purified): Fab'2 of 576 ng/µL, an Enzyme Activity Endpoint Assay (purified): Fc of 170 ng/µL, an Enzyme Activity Endpoint Assay (purified): IgG of 0 ng/µL and an Enzyme Activity Endpoint Assay (purified): scIgG of 0 ng/µL.

On to B5, for which the Enzyme Activity Endpoint Assay (purified): Fab'2 worked out at 735 ng/µL, the Enzyme Activity Endpoint Assay (purified): Fc is 207 ng/µL, the Enzyme Activity Endpoint Assay (purified): IgG was 0 ng/µL and the Enzyme Activity Endpoint Assay (purified): scIgG turned out to be 0 ng/µL.

The protein B6 yielded an Enzyme Activity Endpoint Assay (purified): Fab'2 of 723 ng/µL, an Enzyme Activity Endpoint Assay (purified): Fc of 206 ng/µL, an Enzyme Activity Endpoint Assay (purified): IgG of 0 ng/µL and an Enzyme Activity Endpoint Assay (purified): scIgG of 0 ng/µL.

In turn, B7 returned an Enzyme Activity Endpoint Assay (purified): Fab'2 of 672 ng/µL, an Enzyme Activity Endpoint Assay (purified): Fc of 215 ng/µL, an Enzyme Activity Endpoint Assay (purified): IgG of 0 ng/µL and an Enzyme Activity Endpoint Assay (purified): scIgG of 0 ng/µL.

B8: the Enzyme Activity Endpoint Assay (purified): Fab'2 is 562 ng/µL, the Enzyme Activity Endpoint Assay (purified): Fc stood at 151 ng/µL, the Enzyme Activity Endpoint Assay (purified): IgG is 0 ng/µL and the Enzyme Activity Endpoint Assay (purified): scIgG stood at 26 ng/µL.

Turning to B9, the Enzyme Activity Endpoint Assay: Fab′2 was 47 ng/µL, the Enzyme Activity Endpoint Assay: Fc amounted to 122 ng/µL, the Enzyme Activity Endpoint Assay: IgG was 16 ng/µL and the Enzyme Activity Endpoint Assay: scIgG came out at 14 ng/µL.

Protein B10 yielded an Enzyme Activity Endpoint Assay (purified): Fab'2 of 733 ng/µL, an Enzyme Activity Endpoint Assay (purified): Fc of 213 ng/µL, an Enzyme Activity Endpoint Assay (purified): IgG of 0 ng/µL and an Enzyme Activity Endpoint Assay (purified): scIgG of 0 ng/µL.

B11 registered an Enzyme Activity Endpoint Assay (purified): Fab'2 of 755 ng/µL, an Enzyme Activity Endpoint Assay (purified): Fc of 213 ng/µL, an Enzyme Activity Endpoint Assay (purified): IgG of 0 ng/µL and an Enzyme Activity Endpoint Assay (purified): scIgG of 0 ng/µL.

As for B12, the Enzyme Activity Endpoint Assay (purified): Fab'2 amounted to 846 ng/µL, the Enzyme Activity Endpoint Assay (purified): Fc was 215 ng/µL, the Enzyme Activity Endpoint Assay (purified): IgG was 0 ng/µL and the Enzyme Activity Endpoint Assay (purified): scIgG was 0 ng/µL.

B13: the Enzyme Activity Endpoint Assay (purified): Fab'2 was 589 ng/µL, the Enzyme Activity Endpoint Assay (purified): Fc turned out to be 135 ng/µL, the Enzyme Activity Endpoint Assay (purified): IgG stood at 0 ng/µL and the Enzyme Activity Endpoint Assay (purified): scIgG came out at 0 ng/µL.
